Here are results for three molecules from patent US20180215801A1 (BOARD OF TRUSTEES OF MICHIGAN STATE UNIVERSITY, published 2018).

Experiment [1] addresses T1, Fc-free Cryptic (human Cryptic extracellular domain after removal of the Fc with TEV protease) (human, UniProt P0CG37 26-155).
T1 construct: Same conflict about the C-terminal limit as for Cryptic-Fc (155 vs 167)
In words: SPR competition: 10 nM Activin B preincubated with Fc-free Cryptic, binding to captured ACTRIIA-Fc is blocked. How it is done:
(§1) Receptor-ligand binding affinities were determined by SPR using the Biacore 2000. Anti-human IgG (Fc) antibody was immobilized onto four channels of a CM5 chip using amine coupling chemistry. […] A reference channel was monitored to account for nonspecific binding, drift, and bulk shifts.

For experiment [2], the target named is T2, ALK4-Fc (human ALK4 extracellular domain fused to human IgG1 Fc) (human, UniProt P36896 24-110).
T2 construct: range 1-110; Captured on an anti-human Fc chip in SPR; also called ALK4-hIgg-Fc; human ALK4-Fc
In words: SPR (Biacore 2000), Fc fusion captured on anti-human Fc chip, ligand injected, 1:1 Langmuir fit. How it is done: (§2) Receptor-ligand binding affinities were determined by SPR using the Biacore 2000. Anti-human IgG (Fc) antibody was immobilized onto four channels of a CM5 chip using amine coupling chemistry. […] A reference channel was monitored to account for nonspecific binding, drift, and bulk shifts. […] After each binding cycle, the antibody surface was regenerated to base line. All experiments were carried out at 25° C. HBS-EPS buffer (0.01 M HEPES, […], 3 mM EDTA, 0.005% (v/v) Tween 20, pH 7.4) containing 0.1% BSA was used as running buffer. […] Sensograms were analyzed by double referencing. To obtain kinetic rate constants, the processed data was fitted to 1:1 Langmuir interaction model with mass transport limitation using Scrubber, Clamp or BiaEvaluation software. The equilibrium binding constant Kd was determined by calculating the ratio of binding rate constants kd/kₐ.
On the technique in general: Surface plasmon resonance follows binding to a sensor surface in real time, without labels.

Experiment [3] addresses T1, Fc-free Cryptic (human Cryptic …). In words: SPR competition: 1 nM Activin A preincubated with Fc-free Cryptic, binding to captured ACTRIIA-Fc is blocked. On the procedure: as §1
The target of experiment [4] is T2, ALK4-Fc (human ALK4 extracellular …). In words: SPR, ALK4-Fc captured, Activin A series preincubated with excess Fc-free Cryptic injected. How it is done:
as §2

T2 sequence (P36896 other isoform, or with tags, fused parts or gaps limits assumed, form in doubt): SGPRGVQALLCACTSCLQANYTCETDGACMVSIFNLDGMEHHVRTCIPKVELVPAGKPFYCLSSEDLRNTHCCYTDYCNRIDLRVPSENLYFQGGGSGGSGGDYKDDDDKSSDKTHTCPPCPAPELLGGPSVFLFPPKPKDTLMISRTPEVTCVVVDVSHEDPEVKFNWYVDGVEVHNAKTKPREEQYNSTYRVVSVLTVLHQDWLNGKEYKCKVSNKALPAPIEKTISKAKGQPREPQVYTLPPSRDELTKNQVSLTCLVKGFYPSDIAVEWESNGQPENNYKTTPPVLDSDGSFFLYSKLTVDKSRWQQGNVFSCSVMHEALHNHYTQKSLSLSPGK

B1: Activin B (ligand, UniProt P09529 293-407, looked up)
chain: GLECDGRTNLCCRQQFFIDFRLIGWNDWIIAPTGYYGNYCEGSCPAYLAGVPGSASSFHTAVVNQYRMRGLNPGTVNSCCIPTKLSTMSMLYFDDEYNIVKRDVPNMIVEECGCA
notes: also called recombinant Activin B
For the molecule B1, in experiment [1], the binding result was “binds”.

B2: Activin A (ligand)
chain: GLECDGKVNICCKKQFFVSFKDIGWNDWIIAPSGYHANYCEGECPSHIAGTSGSSLSFHSTVINHYRMRGHSPFANLKSCCVPTKLRPMSMLYYDDGQNIIKKDIQNMIVEECGCS
notes: also called homodimer of inhibin beta A subunits
In the case of B2, in experiment [2], binding was put at a Kd of 4 nM; the koff (usually a measure of how fast the partners let go of each other) is 0.0018 s⁻¹; the association rate constant (kon) (as a rule, a measure of how fast the partners come together) stood at 450000 M⁻¹ s⁻¹. Also, the binding result in experiment [3] is given as “binds”.

B3: Activin A/Cryptic complex (Activin A preincubated with excess Fc-free Cryptic) (other)
chain 1: GLECDGKVNICCKKQFFVSFKDIGWNDWIIAPSGYHANYCEGECPSHIAGTSGSSLSFHSTVINHYRMRGHSPFANLKSCCVPTKLRPMSMLYYDDGQNIIKKDIQNMIVEECGCS
chain 2: not shown
With B3, in experiment [4], the dissociation constant Kd (commonly the equilibrium constant for the complex coming apart) stood at 2.6 nM, the off-rate (koff) worked out at 0.0016 s⁻¹ and the kon amounted to 620000 M⁻¹ s⁻¹.
